Where a chain is given by its changes, count along the chain named.

The labels stand for the following.
T1: human IL-23R expressed on the cell surface of stably transfected iLite and HEK cell lines (human, UniProt Q5VWK5 24-629)
T1 construct: whole, on cells; Same receptor on two transfected cell lines; the cell line is named under assay; also called human IL-23R iLite cells; human IL-23R HEK cells
T1 sequence (looked up): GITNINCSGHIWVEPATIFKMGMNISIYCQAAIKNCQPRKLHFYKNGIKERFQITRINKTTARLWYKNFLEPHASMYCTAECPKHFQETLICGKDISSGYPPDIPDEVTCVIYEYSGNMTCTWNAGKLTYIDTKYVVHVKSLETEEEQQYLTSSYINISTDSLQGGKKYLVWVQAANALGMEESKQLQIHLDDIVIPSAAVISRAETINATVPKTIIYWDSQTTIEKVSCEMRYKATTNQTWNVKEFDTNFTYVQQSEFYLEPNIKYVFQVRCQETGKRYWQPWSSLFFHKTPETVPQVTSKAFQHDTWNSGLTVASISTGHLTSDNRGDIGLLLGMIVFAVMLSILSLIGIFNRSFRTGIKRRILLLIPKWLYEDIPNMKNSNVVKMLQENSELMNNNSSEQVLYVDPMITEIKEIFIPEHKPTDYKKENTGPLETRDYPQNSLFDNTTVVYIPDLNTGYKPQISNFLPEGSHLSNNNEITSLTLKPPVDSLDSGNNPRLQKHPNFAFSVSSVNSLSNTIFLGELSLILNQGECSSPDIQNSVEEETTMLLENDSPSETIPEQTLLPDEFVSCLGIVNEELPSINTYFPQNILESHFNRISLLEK

T2: rat IL-23R extracellular domain (ECD) protein (rat)
T2 construct: also called rat IL-23R ECD; F1LX96 amino acids 24-354
T2 chain: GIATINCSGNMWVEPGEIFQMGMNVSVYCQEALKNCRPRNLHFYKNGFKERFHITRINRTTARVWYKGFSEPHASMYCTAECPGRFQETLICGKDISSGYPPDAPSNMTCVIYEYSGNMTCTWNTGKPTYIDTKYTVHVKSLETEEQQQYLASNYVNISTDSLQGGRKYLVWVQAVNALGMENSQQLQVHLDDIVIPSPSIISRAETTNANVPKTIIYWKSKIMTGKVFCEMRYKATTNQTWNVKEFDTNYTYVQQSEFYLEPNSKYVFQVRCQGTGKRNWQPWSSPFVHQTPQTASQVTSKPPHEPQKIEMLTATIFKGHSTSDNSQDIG

B1: I23RB166 (antibody, mouse IgG2a, kappa, V domains shown)
VH: DVQLQESGPGLVKPSQTVSLTCTVTGYSITNGNHWWNWIRQVSGSKLEWIGYIRSSGSTDSNPSLKSRISITRDTSKNQLFLQLNSVTAEDIATYYCARERLRLRWSYFDYWGQGTTLTVSS
VL: DIVMTQSHKFMSTSVGARVSITCKASQDVSTAVAWYQQKPGQSPKLLIYSASYRYTGVPDRFTGSGSGTDFTFTISSVQAEDLAVYYCQQHYSTPRTFGGGTKLEIKR
notes: immunization; mouse IgG2a/kappa
B2: I23RB150 (antibody, mouse IgG2a, kappa, V domains shown)
VH: QIQLVQSGPELKKPGETVKISCKASAYTFTNYGMNWVKQAPGKGLKWMGWIKTNTGEPTYAEEFKGRFAFSLETSASTAYLQINNLKNEDTATYFCARSRQLGLRYYFDYWGQGTTLTVSS
VL: B1 VL with A17G, K45R, Y86F, R96Y, G100S, K103R
notes: as for B1
B3: I23RB160 (antibody, mouse IgG2a, kappa, V domains shown)
VH: QVQLKESGPDLVKPSQSLSLTCTVTGYSITSGYNWHWIRQFPGNKLEWMGYIHYSSGTIYNPSLKSRISITRDTSKNQFFLQLNSVTTEDTGTYYCARQLGLKAMDYWGQGTSVTVSS
VL: B1 VL with A17D, S30R, Y49H, A80V, S93T, R96Y, G100S
notes: as for B1
B4: I23RB156 (antibody, mouse IgG2a, kappa, V domains shown)
VH: QVQLKESGPGLVAPSQSLSITCTVSGFSLTSYAINWVRQPPGKGLEWLGVIWTGGGTNYNSVFKSRLSISKDNSKSQIFLKMISLQTDDTARYYCARNRDYSNYRWYFDVWGAGTTLTVSS
VL: B1 VL with A17D, Q42R, S52F, S76G, T94I, R96L, G100A, I106L
notes: as for B1
B5: I23RB148 (antibody, mouse IgG2a, kappa, V domains shown)
VH: DVQLQESGPDLVKPSQSLSLTCTVTGYSITSGYNWHWIRQFPGNKLEWMGYIHSSGTTNYSPSLRSRLSITRDTSKNQFFLQLNSVTTEDTATYYCTRQLGLKAMEYWGQGTTLTVSS
VL: B1 VL with A17D, I21L, D28E, S30R, S43P, S76I, S93T, R96Y, T97S, G100S
notes: as for B1
B6: I23RB168 (antibody, mouse IgG2a, kappa, V domains shown)
VH: QIQLVQSGPELVKPGASVKMSCKTSGYTFTDYYINWVKQRPGQGLEWIGWIYPAINNTNYNEKFKGKATLTVDTSSRTAYMQLNSLTSEDSAVYFCAISRKPYFDYWGQGTTLTVSS
VL: DIQMTQSSSSFSVSLGDRVTITCKASEDLYNRLAWYQQKPGNAPRLLISGATSLGTGVLSRFSGSGSGKDYTLSITSLQTEDVATYYCQQYWSIPWTFGAGTKLELKR
notes: as for B1
B7: I23RB165 (antibody, mouse IgG2a, kappa, V domains shown)
VH: EVQLQQSGAELVRPGASVKLSCTASGFNIKDSLMHWVKQRPEQGLEWIGWIDPEDGKTKYAPKFQDKATITADTSSNTAYLQLSSLTSEDTAIYYCARREVLDYFDYWGQGTTLTVSS
VL: DIVMTQSPASLAVSLGQRATISCRASKSVSTSGYSYMHWYQQKPGQPPKLLIYLASNLESGVPARFSGSGSGTDFTLNIHPVEEEDAATYYCQHSRELPLTFGAGTKLEMKR
notes: as for B1
B8: I23RB155 (antibody, mouse IgG2a, kappa, V domains shown)
VH: QVQLKESGPGLVKPSQSLSLTCSVTGYSITSGHSWNWIRQFPGNKLEWMGYISYDGTNDYNPSLKNRISITRDTSKNQFFLNLNSVTTEDTVTYYCARGGGYYGGTYRVFADWGQGTTLTVSS
VL: QIVLSQSPASLAVSLGQRATISCRTSESVDTYGNSFIYWYQQKPGQPPKLLIYRASNLESGIPARFSGSGSRTDFTLTINPVEADDVATYYCQQGNKDPYTFGSGTKLEMKR
notes: as for B1
B9: I23RB162 (antibody, mouse IgG2a, kappa, V domains shown)
VH: EFQLQQSGPELVKPGASVKMSCKASGYTFTNYVMHWVKQKPGQGLEWIGYINPYNDGTKYNEKFKGKATLTSDKSSSTAYMELSSLTSEDSAVYYCARSRTGTRWYFDVWGAGTTVTVSS
VL: DIVMTQSQKFMSTSVGDRVSVTCKASQNVGTNVAWYQQKPGQSPKALIYSASYRYSGVPDRFTGSGSGTDFTLTISNVQSEDLAEYFCQQYNSYPFTFGSGTKLEIKR
notes: as for B1
B10: I23RB144 (antibody, mouse IgG2a, kappa, V domains shown)
VH: EVQLQQSGPELVKPGASVKMSCKASGYTFTSYIIHWVKQKPGQGLEWIGYIDPYNDDTKYNEKFKGKATLTSDKSSSTAYMEFSSLTSEDSAVYYCARLGSINYYDGSYFDYWGQGTSVTVSS
VL: DIVMTQSPLTLSVIIGQSASISCKSSQSLLDSDGKTYLNWLLQRPGQSPKRLMYLVSKLDSGVPDRFTGSGSGTDFTLKISRVEAEDLGVYYCWQGIHFPLTFGSGTRLEIKR
notes: as for B1
B11: I23RB80 (antibody, mouse IgG2a, kappa, V domains shown)
VH: DVQLQESGPGLVQPSQSLSITCTVSGFSLTSYGVHWVRQSPGKGLEWLGVIWSGVSTDYNAAFISRLSISKDNSKSQVFFKMNSLQADDTAIYYCARSRGSYYFDYWGQGTTLTVSS
VL: DIVMTQSQKFMSTSEGDRVNITCKASQNIRTAVAWYQQKPGQSPKPLIYLASNRHTGVPDRFTGSGSGTDFTLTISNVQSEDLAEYFCLQHWNYPLTFGAGTKLELKR
notes: mouse immunization; mouse IgG2a/kappa
B12: I23RB5 (antibody, mouse IgG2a, kappa, V domains shown)
VH: QVQLVQSGAEVKKPGSSVKVSCKASGGTFSSYAISWVRQAPGQGLEWMGGIIPIFGTANYAQKFQGRVTITADESTSTAYMELSSLRSEDTAVYYCARDSYYSTVTYYYFDYWGQGTLVTVSS
VL: not shown
notes: phage display; human V regions, mouse IgG2a/kappa constant regions; also called negative control mAb

In the first experiment the target is T1, human IL-23R expressed on the cell …. The experiment can be described thus: flow cytometry on human IL-23R HEK cells, Expt D (8-point, 96well). The gist of the method:
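Serially diluted IL-23R mAbs bound to mixed HEK-IL-23R and parental HEK cells for 30 min at 37 °C, in duplicate. After washes, 647 detection antibody geometric MFI measured on single viable (Sytox Green-negative) cells and fitted to a variable-slope dose-response against log mAb concentration.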
(In flow cytometry, cells or beads pass a laser one at a time.)
As for B1, the concentration giving a half-maximal response (EC50) (as a rule, the concentration at which the effect is half-maximal) was determined as 0.3 nM.
On the same count and under the same terms, with B2 the figure was 0.8 nM.
On the same count and under the same terms, with B3 the figure was 0.4 nM; with B4, 0.4 nM; with B5, 0.3 nM.
Still for that read-out and setting: with B6 the figure was 3.4 nM; with B7, 0.6 nM; with B8, 0.9 nM.
In turn, B9 yielded an EC50 of 0.1 nM.
The same measure, in the same setting: with B10 the figure was 13.4 nM.

The target is the same in another experiment. Kind of experiment: flow cytometry on human IL-23R HEK cells, Expt E (11-point, 384well). The gist of the method: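 Antibody bound to HEK-IL-23R cells 30 min at 37 °C over 11 concentrations; after washes, Sytox Green added and cells run on iQue. Geometric MFI of 647 detection antibody on single viable cells fitted by variable-slope dose–response.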
With B1, the midpoint of the response, the EC50, lay at 11.6 nM and the “MFI (6.4 nM)” value worked out at 198000 MFI.
The corresponding values for B2 are 16.2 nM and 103000 MFI.
For B3, in that order: 5.6 nM and 185000 MFI.
The corresponding values for B4 are 8.9 nM and 174000 MFI.
As to B5, it took 6 nM to reach a half-maximal effect (EC50) and the “MFI (6.4 nM)” value is 203000 MFI.
The corresponding values for B6 are 22.1 nM and 73000 MFI.
The corresponding values for B7 are 9.7 nM and 116000 MFI.
The corresponding values for B8 are 10.1 nM and 177000 MFI.
On to B9, for which the concentration for a half-maximal effect (EC50) was found to be 2.8 nM and the “MFI (6.4 nM)” value is 269000 MFI.
For B10, in that order: over 50 nM and 46200 MFI.

The next experiment concerns the target T2, rat IL-23R extracellular domain (ECD) …. Kind of experiment: SPR Biacore 8K, supernatant. The method, then: Affinity by SPR using Biacore 8K. Affinity measurements using Surface Plasmon Resonance (SPR) were performed using a Biacore 8K system (Cytiva). […] Approximately 9000-10000 RU (response units) of mAbs were immobilized. The kinetic experiments were performed at 25° C. in running buffer 1× of (HBS-P+ Buffer 10× (Cytiva #BR100671)+100 μg/ml BSA). To perform kinetic experiments, approximately 150 RU of mAbs were captured followed by injections of human IL-23R or rat IL-23R at concentrations ranging from 0.8 nM to 500 nM (in a 5-fold serial dilution). The association phase was monitored for 3 minutes at 50 μL/min, then followed by 30 minutes of buffer flow (dissociation phase). […] The collected data were processed using Biacore insight Evaluation software (Version 3.0.12.15655). The kinetic analysis of the data was performed using a Langmuir 1:1 binding model. The result for each mAb was reported in the format of Ka (On-rate), Kd (Off-rate) and KD (equilibrium dissociation constant).
(SPR reads the build-up and loss of mass on a sensor chip optically.)
With B11, the binding result is “no binding (tested: 500 nM)”.
Same read-out and setting: to B12 belongs “no binding (tested: 500 nM)”.

The record behind these values is patent publication US20250179196A1 (Janssen / Centocor, published 2025).
